Molecular target: HLA-A*02 (Homo sapiens, UniProt P04439, D140Y/D185E/D98H/E176V/E277Q/G131W/G231S/I119V/I121R/I166T/I218V/L300P/N151K/N90K/P208A/P217A/Q86G/Q94H/R138H/R169H)
Experiment: MHC binding assay, UV-ligand exchange with beta2m ELISA, HLA-A*02
Details: binding to HLA-A*02 ranged by peptide exchange yield (UV-ligand exchange, beta2m ELISA)
From the text: Candidate peptides for T cell based therapies according to the present invention were further tested for their MHC binding capacity (affinity). The individual peptide-MHC complexes were produced by UV-ligand exchange, where a UV-sensitive peptide is cleaved upon UV-irradiation, and exchanged with the peptide of interest as analyzed. Only peptide candidates that can effectively bind and stabilize the peptide-receptive MHC molecules prevent dissociation of the MHC complexes. To determine the yield of the exchange reaction, an ELISA was performed based on the detection of the light chain (ß2 m) of stabilized MHC complexes. The assay was performed as generally described in Rodenko et al. (Rodenko et al., 2006).
96 well MAXISorp plates (NUNC) were coated over night with 2 ug/ml streptavidin in PBS at room temperature, washed 4× and blocked for 1 h at 37° C. in 2% BSA containing blocking buffer. […] Peptide-MHC monomers of the UV-exchange reaction were diluted 100 fold in blocking buffer. Samples were incubated for 1 h at 37° C., washed four times, incubated with 2 ug/ml HRP conjugated anti-β2 m for 1h at 37° C., washed again and detected with TMB solution that is stopped with […]. Absorption was measured at 450 nm. Candidate peptides that show a high exchange yield (preferably higher than 50%, most preferred higher than 75%) are generally preferred for a generation and production of antibodies or fragments thereof, and/or T cell receptors or fragments thereof, as they show sufficient avidity to the MHC molecules and prevent dissociation of the MHC complexes.

| Substance | Peptide exchange |
| --- | --- |
| 4 (ELAEIVFKV; listed as Homo sapiens) [compound 4] | +++ (50%-75% = +++) |
| 6 (FLDPAQRDL; listed as Homo sapiens) [compound 6] | +++ (50%-75% = +++) |
| 8 (KLGPFLLNA; listed as Homo sapiens) [compound 8] | +++ (50%-75% = +++) |
| 10 (KTLDVFNIIL; listed as Homo sapiens) [compound 10] | ++ (20%-49% = ++) |
| 12 (GLIYEETRGV; listed as Homo sapiens) [compound 12] | ++ (20%-49% = ++) |
| 13 (VLRDNIQGI; listed as Homo sapiens) [compound 13] | +++ (50%-75% = +++) |
| 18 (YVLNEEDLQKV; listed as Homo sapiens) [compound 18] | +++ (50%-75% = +++) |
| 20 (ALDGHLYAI; listed as Homo sapiens) [compound 20] | +++ (50%-75% = +++) |
| 22 (MLSDLTLQL; listed as Homo sapiens) [compound 22] | ++++ (>=75% = ++++) |
| 24 (FLWNGEDSAL; listed as Homo sapiens) [compound 24] | +++ (50%-75% = +++) |
| 25 (IQADDFRTL; listed as Homo sapiens) [compound 25] | ++ (20%-49% = ++) |
| 27 (KVFGDLDQV; listed as Homo sapiens) [compound 27] | +++ (50%-75% = +++) |
| 28 (TLYSMDLMKV; listed as Homo sapiens) [compound 28] | +++ (50%-75% = +++) |
| 31 (ALSDETKNNWEV; listed as Homo sapiens) [compound 31] | ++++ (>=75% = ++++) |
| 33 (LLLPLLPPLSPSLG; listed as Homo sapiens) [compound 33] | +++ (50%-75% = +++) |
| 35 (YVLPKLYVKL; listed as Homo sapiens) [compound 35] | ++ (20%-49% = ++) |
| 44 (GLLWQIIKV; listed as Homo sapiens) [compound 44] | ++ (20%-49% = ++) |
| 45 (VLGPTPELV; listed as Homo sapiens) [compound 45] | +++ (50%-75% = +++) |
| 46 (SLAKHGIVAL; listed as Homo sapiens) [compound 46] | +++ (50%-75% = +++) |
| 48 (TLDHKPVTV; listed as Homo sapiens) [compound 48] | ++ (20%-49% = ++) |

Further lines, results first:

| Peptide exchange | Substance |
| --- | --- |
| ++ (20%-49% = ++) | 1 (PLWGKVFYL; listed as Homo sapiens) [compound 1] |
| +++ (50%-75% = +++) | 3 (TLLGKQVTL; listed as Homo sapiens) [compound 3] |
| +++ (50%-75% = +++) | 5 (SLFGQEVYC; listed as Homo sapiens) [compound 5] |
| ++ (20%-49% = ++) | 11 (GVLKVFLENV; listed as Homo sapiens) [compound 11] |
| ++ (20%-49% = ++) | 14 (LLDHLSFINKI; listed as Homo sapiens) [compound 14] |
| ++ (20%-49% = ++) | 16 (HLYNNEEQV; listed as Homo sapiens) [compound 16] |
| +++ (50%-75% = +++) | 19 (TLLPTVLTL; listed as Homo sapiens) [compound 19] |
| ++++ (>=75% = ++++) | 21 (SLYHRVLLY; listed as Homo sapiens) [compound 21] |
| + (<20% = +) | 23 (AQTVVVIKA; listed as Homo sapiens) [compound 23] |
| +++ (50%-75% = +++) | 26 (KVDGVVIQL; listed as Homo sapiens) [compound 26] |
| +++ (50%-75% = +++) | 29 (TLCNKTFTA; listed as Homo sapiens) [compound 29] |
| +++ (50%-75% = +++) | 32 (ILADEAFFSV; listed as Homo sapiens) [compound 32] |
| ++++ (>=75% = ++++) | 36 (KLYGIEIEV; listed as Homo sapiens) [compound 36] |
| +++ (50%-75% = +++) | 37 (ALINDILGELVKL; listed as Homo sapiens) [compound 37] |
| +++ (50%-75% = +++) | 38 (KMQEDLVTL; listed as Homo sapiens) [compound 38] |
| +++ (50%-75% = +++) | 39 (ALMAVVSGL; listed as Homo sapiens) [compound 39] |
| +++ (50%-75% = +++) | 40 (SLLALPQDLQA; listed as Homo sapiens) [compound 40] |
| +++ (50%-75% = +++) | 41 (FVLPLVVTL; listed as Homo sapiens) [compound 41] |
| +++ (50%-75% = +++) | 42 (VLSPFILTL; listed as Homo sapiens) [compound 42] |
| +++ (50%-75% = +++) | 47 (GLYQAQVNL; listed as Homo sapiens) [compound 47] |

Test system: HLA-A*24
Experiment: MHC binding assay, UV-ligand exchange with beta2m ELISA, HLA-A*24
Set-up: species or system human
Details: binding to HLA-A*24 ranged by peptide exchange yield (UV-ligand exchange, beta2m ELISA)
How it was run: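 Peptide–MHC complexes made by UV-ligand exchange of a UV-cleavable peptide. Exchange yield measured by ELISA: monomers diluted 100-fold on streptavidin-coated plates, 1 h at 37°C, detected with HRP anti-β2m (2 ug/ml) and TMB, absorbance at 450 nm.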

| Substance | Peptide exchange |
| --- | --- |
| 370 (RFIGIPNQF; listed as Homo sapiens) [compound 370] | +++ (50%-75% = +++) |
| 373 (GYISNGELF; listed as Homo sapiens) [compound 373] | +++ (50%-75% = +++) |
| 374 (VFLPRVTEL; listed as Homo sapiens) [compound 374] | ++ (20%-49% = ++) |
| 379 (VFIAQGYTL; listed as Homo sapiens) [compound 379] | ++++ (>=75% = ++++) |
| 381 (KYPASSSVF; listed as Homo sapiens) [compound 381] | +++ (50%-75% = +++) |
| 386 (TFSDVEAHF; listed as Homo sapiens) [compound 386] | +++ (50%-75% = +++) |

More lines, now with the values ahead:

| Peptide exchange | Substance |
| --- | --- |
| +++ (50%-75% = +++) | 369 (VYTHEVVTL; listed as Homo sapiens) [compound 369] |
| ++ (20%-49% = ++) | 371 (AYSHLRYVF; listed as Homo sapiens) [compound 371] |
| +++ (50%-75% = +++) | 372 (VYVIEPHSMEF; listed as Homo sapiens) [compound 372] |
| +++ (50%-75% = +++) | 375 (KYTDYILKI; listed as Homo sapiens) [compound 375] |
| +++ (50%-75% = +++) | 376 (VYTPVASRQSL; listed as Homo sapiens) [compound 376] |
| +++ (50%-75% = +++) | 377 (QYTPHSHQF; listed as Homo sapiens) [compound 377] |
| +++ (50%-75% = +++) | 378 (VYIAELEKI; listed as Homo sapiens) [compound 378] |
| +++ (50%-75% = +++) | 382 (AYLPPLQQVF; listed as Homo sapiens) [compound 382] |
| +++ (50%-75% = +++) | 383 (RYKPGEPITF; listed as Homo sapiens) [compound 383] |
| +++ (50%-75% = +++) | 384 (RYFDVGLHNF; listed as Homo sapiens) [compound 384] |
| +++ (50%-75% = +++) | 385 (QYIEELQKF; listed as Homo sapiens) [compound 385] |
| +++ (50%-75% = +++) | 387 (KYTEKLEEI; listed as Homo sapiens) [compound 387] |
| +++ (50%-75% = +++) | 388 (IYGEKTYAF; listed as Homo sapiens) [compound 388] |
